Experimental data from paper PMC7156504 (2020).
Numbering of substitutions follows the chain as printed. In names and notes the source's numbering stands. Each block holds one binder with its values, some of them ahead of it.

Molecular target: biotinylated nerve growth factor (NGF) (human, UniProt P01138 122-241, biotin (biotinylated in-house, sites not stated))
Assay: FRET; epitope competition with labelled IgGWFL

biotinylated nerve growth factor (NGF), sequence (P01138 122-241): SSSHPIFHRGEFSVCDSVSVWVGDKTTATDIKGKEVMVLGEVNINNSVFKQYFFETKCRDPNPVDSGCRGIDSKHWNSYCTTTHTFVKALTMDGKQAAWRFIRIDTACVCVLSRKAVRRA

B2: evolved scFvWFL variant 139 reformatted as IgG1 (antibody, V domains shown)
VH: QVQLVQSGAEVKKPGSSVKVSCKAGGGTFWSGAFTWVRQAPGQGLEWMGGIIPIFGLTNLAQNFQGRVTITADESTSTVYMELSSLRSEDTAVYYCARSSRTYDLNPSLTAYYDMDVWGQGTMVTVSS
VL: QSVLTQPPSVSAAPGQKVTISCSGSSSDIGNNYVSWYQQLPGTAPKLLIYDNNKRPSGIPDRFSGSKSGTTATLGITGLQTGDEADYYCGTWDSSLSAWVFGGGTKLTVL
IC50: 0.649 nM

B3: evolved scFvWFL variant 126 reformatted as IgG1 (antibody, V domains shown)
VH: B2 VH with G25S, S31F, I51F, F55S, T102I
VL: B2 VL with T71S
IC50: 5.69 nM

B6: evolved scFvWFL variant 72 reformatted as IgG1 (antibody, V domains shown)
VH: B2 VH with G25S, F29S, S31F, I51T, E89D, T102I, D116G
VL: B2 VL with N31D, T71S
IC50: 1.91 nM

B7: IgGSTT, variant of MEDI1912 with W35S, F36T and L64T in VH (antibody, V domains shown)
VH: B2 VH with G25S, W30S, S31T, L57T, T102I
VL: B2 VL with T71S
IC50: 0.573 nM

B9: evolved scFvWFL variant 130 reformatted as IgG1 (antibody, V domains shown)
VH: B2 VH with G25S, T28A, S31F, I52T, L57H, T102I
VL: B2 VL with T71S
IC50: 2.06 nM

B10: evolved scFvWFL variant 16 reformatted as IgG1 (antibody, V domains shown)
VH: B2 VH with G25S, F55S, V79A, T102I
VL: B2 VL with T71S, F101I
IC50: 0.935 nM

B11: MEDI578 (the parent antibody prior to affinity maturation into MEDI1912) (antibody, V domains shown)
VH: QVQLVQSGAEVKKPGSSVKVSCKASGGTFSTYGISWVRQAPGQGLEWMGGIIPIFDTGNSAQSFQGRVTITADESTSTAYMELSSLRSEDTAVYYCARSSRIYDLNPSLTAYYDMDVWGQGTMVTVSS
VL: B2 VL with D28N, T71S
IC50: 36.8 nM

B12: evolved scFvWFL variant 128 reformatted as IgG1 (antibody, V domains shown)
VH: B2 VH with G25S, S31F, T102I, Y112D
VL: B2 VL with K17E, L40P, T43A, T71S
IC50: 1.41 nM

Now those with a lower IC50, led by results:

IC50: 0.136 nM
B1: evolved scFvWFL variant 37 reformatted as IgG1 (antibody, V domains shown)
VH: B2 VH with Q6P, G25S, S31F, I54T, T102I
VL: B2 VL with S25P, T71S

IC50: 0.177 nM
B4: evolved scFvWFL variant 59 reformatted as IgG1 (antibody, V domains shown)
VH: B2 VH with G25S, W30R, S31F, V37A, V68A, T102I
VL: B2 VL with I49T, D61G, T71S

IC50: 0.363 nM
B5: IgGWFL (MEDI1912), human IgG1 antibody specific for human nerve growth factor (antibody, V domains shown)
VH: B2 VH with G25S, S31F, T102I
VL: B2 VL with T71S

IC50: 0.251 nM
B8: evolved scFvWFL variant 11 reformatted as IgG1 (antibody, V domains shown)
VH: B2 VH with Q6R, G25S, S31F, T102I, T110A
VL: B2 VL with S21P, T71S, I76V

IC50: 0.201 nM
B13: evolved scFvWFL variant 176 reformatted as IgG1 (antibody, V domains shown)
VH: B2 VH with Q6R, G25S, S31F, T102I
VL: B2 VL with T71S
